Data: paper PMC6799845, “On-chip structure-switching aptamer-modified magnetic nanobeads for the continuous monitoring of interferon-gamma ex vivo”

Experiments:
PSA = PSA (UniProt P07288 25-261); experiment: electrochemistry (on-chip bead-bound aptamer); 1 mg/mL; no significant signal (<15%); Buffer C: 100 mM Tris-HCl pH 7.4, 100 mM NaCl, 1 mM MgCl2, 5 mM KCl; room temperature (optimized conditions stated as pH 7.5, 100 mM salt); settings: protein: commercial; label: 5'-ferrocene; 3'-biotin (on streptavidin magnetic beads); hairpin
Chain of PSA (P07288 25-261): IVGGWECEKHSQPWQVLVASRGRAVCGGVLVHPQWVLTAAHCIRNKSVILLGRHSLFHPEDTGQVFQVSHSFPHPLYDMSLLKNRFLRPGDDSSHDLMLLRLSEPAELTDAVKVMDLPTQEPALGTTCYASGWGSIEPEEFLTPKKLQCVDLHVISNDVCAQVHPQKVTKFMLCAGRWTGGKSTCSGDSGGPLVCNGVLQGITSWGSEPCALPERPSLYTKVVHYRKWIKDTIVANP

TNF-α = TNF-α (UniProt P01375 77-233); experiment: electrochemistry (on-chip bead-bound aptamer); 1 ng/mL; no significant signal (<15%); Buffer C: 100 mM Tris-HCl pH 7.4, 100 mM NaCl, 1 mM MgCl2, 5 mM KCl; room temperature (optimized conditions stated as pH 7.5, 100 mM salt); settings: protein: commercial; chain copies: 3; label: 5'-ferrocene; 3'-biotin (on streptavidin magnetic beads); hairpin
Chain of TNF-α (P01375 77-233): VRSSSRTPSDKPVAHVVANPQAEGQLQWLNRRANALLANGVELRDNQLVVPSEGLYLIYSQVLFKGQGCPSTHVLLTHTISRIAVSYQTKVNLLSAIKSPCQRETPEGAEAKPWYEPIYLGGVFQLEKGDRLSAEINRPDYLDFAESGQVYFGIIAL

IL-6 = IL-6 (UniProt P05231 30-212); experiment: as above; settings: protein: commercial; label: 5'-ferrocene; 3'-biotin (on streptavidin magnetic beads); hairpin
Chain of IL-6 (P05231 30-212): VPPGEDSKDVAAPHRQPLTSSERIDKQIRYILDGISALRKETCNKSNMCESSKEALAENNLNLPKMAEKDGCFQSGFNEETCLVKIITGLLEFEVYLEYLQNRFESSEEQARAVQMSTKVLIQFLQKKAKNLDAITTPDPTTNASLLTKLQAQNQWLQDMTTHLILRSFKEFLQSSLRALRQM

interferon gamma (IFN-γ) = interferon gamma (IFN-γ) (human, UniProt P01579 24-166); experiment: electrochemistry (SWV, on-chip bead-bound aptamer); 1 mM Mg2+, 5 mM K+; from calibration-curve midpoint (100 pg/mL) (so in the source); Buffer C: 100 mM Tris-HCl pH 7.4, 100 mM NaCl, 1 mM MgCl2, 5 mM KCl; room temperature (optimized conditions stated as pH 7.5, 100 mM salt); settings: protein: recombinant; chain copies: 2; label: 5'-ferrocene; 3'-biotin (on streptavidin magnetic beads); hairpin
Chain of interferon gamma (IFN-γ) (P01579 24-166): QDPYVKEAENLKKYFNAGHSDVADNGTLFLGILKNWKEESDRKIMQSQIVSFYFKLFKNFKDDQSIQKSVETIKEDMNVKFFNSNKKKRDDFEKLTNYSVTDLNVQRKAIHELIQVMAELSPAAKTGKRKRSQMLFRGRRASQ

GGGGTTGGTTGTGTTGGGTGTTGTGTCCAACCCC (structured_DNA) [Fc-labeled IFN-γ hairpin aptamer (MB-aptamer)]: no binding (PSA); no binding (TNF-α); no binding (IL-6). For the same binder, the Ka (interferon gamma (IFN-γ)) was about 2.1e+10 M⁻¹.
